Patent publication US20030232009A1 (Amgen, published 2003)
Changes are numbered by the printed parent chain.

Assays:
[1] = biological target: T1, Human 46 mer peptide (RB exon of human CD45) (human); test: recombinant antibody on peptide
T1 construct: synthetic peptide; also called CD45RB 46 mer
T1 peptide: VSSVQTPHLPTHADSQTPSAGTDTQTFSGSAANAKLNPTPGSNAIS

[2] = biological target: T2, Macaque 46 mer peptide (RB exon of macaque CD45RB) (macaque); test: recombinant antibody on peptide
T2 construct: synthetic peptide
T2 peptide: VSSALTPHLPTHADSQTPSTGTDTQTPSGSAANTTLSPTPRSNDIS

[3] = biological target: T3, Human 18 mer peptide (human); test: recombinant antibody on peptide
T3 construct: synthetic peptide from the RB exon
T3 peptide: VSSVQTPHLPTHADSQTPC

[4] = biological target: T4, Human 20.1 peptide (human); test: recombinant antibody on peptide
T4 construct: synthetic peptide from the RB exon
T4 peptide: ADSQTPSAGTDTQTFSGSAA

[5] = biological target: T5, Human 20.2 peptide (human); test: recombinant antibody on peptide
T5 construct: synthetic peptide from the RB exon
T5 peptide: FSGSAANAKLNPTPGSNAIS

[6] = biological target: T6, chimeric CD45RB (full length human CD45RB with the macaque RB exon) transiently expressed in CHO cells (human; macaque, UniProt P08575-9 26-33; P08575-9 81-1192); test: transiently transfected CHO cells
T6 construct: whole chimeric protein on CHO cells; also called Macaque CD45RB CHO
T6 sequence: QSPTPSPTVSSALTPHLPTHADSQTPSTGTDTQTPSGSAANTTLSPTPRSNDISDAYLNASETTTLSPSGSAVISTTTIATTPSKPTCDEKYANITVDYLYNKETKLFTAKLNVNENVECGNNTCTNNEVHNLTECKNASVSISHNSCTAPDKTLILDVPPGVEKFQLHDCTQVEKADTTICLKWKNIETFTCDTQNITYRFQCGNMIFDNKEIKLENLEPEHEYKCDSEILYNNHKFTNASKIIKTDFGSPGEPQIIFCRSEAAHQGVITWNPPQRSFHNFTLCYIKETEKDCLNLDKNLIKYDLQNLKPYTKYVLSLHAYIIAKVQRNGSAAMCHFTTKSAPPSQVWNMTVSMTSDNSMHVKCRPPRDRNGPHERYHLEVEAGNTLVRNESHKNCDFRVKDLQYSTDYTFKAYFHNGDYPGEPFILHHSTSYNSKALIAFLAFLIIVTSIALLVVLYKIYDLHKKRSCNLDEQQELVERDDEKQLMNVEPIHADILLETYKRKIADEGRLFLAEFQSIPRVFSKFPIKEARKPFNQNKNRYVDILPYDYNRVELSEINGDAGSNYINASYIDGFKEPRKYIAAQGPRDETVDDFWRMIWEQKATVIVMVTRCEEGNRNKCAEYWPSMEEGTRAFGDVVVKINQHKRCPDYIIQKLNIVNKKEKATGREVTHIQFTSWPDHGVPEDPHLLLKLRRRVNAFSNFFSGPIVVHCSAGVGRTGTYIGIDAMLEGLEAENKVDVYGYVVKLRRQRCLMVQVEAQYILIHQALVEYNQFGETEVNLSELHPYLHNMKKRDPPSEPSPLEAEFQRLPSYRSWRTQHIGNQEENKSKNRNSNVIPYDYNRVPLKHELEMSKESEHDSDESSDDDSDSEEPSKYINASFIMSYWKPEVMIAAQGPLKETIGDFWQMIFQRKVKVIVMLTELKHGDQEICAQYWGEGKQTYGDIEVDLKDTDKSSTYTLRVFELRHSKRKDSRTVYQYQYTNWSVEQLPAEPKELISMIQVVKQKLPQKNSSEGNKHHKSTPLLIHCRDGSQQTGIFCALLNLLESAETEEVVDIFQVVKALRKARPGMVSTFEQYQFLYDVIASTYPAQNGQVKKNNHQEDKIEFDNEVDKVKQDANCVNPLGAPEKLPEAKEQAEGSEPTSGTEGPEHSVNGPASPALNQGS

Measured: binding result

B1: AB-CD45RB-XG2-636 (antibody, human IgG2, V domains shown)
VH: QVHLVESGGGLVKPGGSLRLSCAASGFTFINYYMTWIRQAPGKGLEWVSYISLSGSTIYYADSVKGRFTISRDNAKNSLFLQMNSLRAEDTAVYYCARRAATVTTFDYWGQGTLVTVSS
VL: EIVMTQSPATLSVSPGERATLSCRASQSVRSNLAWSQQKPGQAPRLLIYGASTRATGIPARFSGSGSGTEFTLTISSLQSEDFAVYYCQQYNNWPLTFGGGTKVEIK
notes: recombinant human IgG2 kappa; also called sc636
not listed: [6]
no binding: all other assays above

B2: AB-CD45RB-XG2-275 (antibody, human IgG2, V domains shown)
VH: QVQLVESGGGVVQPGRSLRLSCAASGFTFSKFGMHWVRQAPDKGLEWVAVIWYDGTYKYYADSVKGRFTISRDNSKNTLYLQMNSLRAEDTAVYYCARGGGSFDYWGQGTLVTVSS
VL: DIVMTQTPLSLSVTPGQPASISCKSSQSLLHSDGKTFLYWYLQKPGQPPQLLIYEVSNRFSGVPDRFSGSGSGIDFTLKISRVEAEDVGVYYCMQSIQFPITFGQGTRLEIK
notes: recombinant human IgG2 kappa; also called sc275
no binding: [5]

B3: AB-CD45RB-XG2-324 (antibody, human IgG2, V domains shown)
VH: B2 VH with T56S, V93A
VL: B2 VL
notes: recombinant human IgG2 kappa; also called sc324; 39E11 (sc324)
no binding: [5]

B4: AB-CD45RB-XG2-413 (antibody, human IgG2, V domains shown)
VH: B2 VH with K31S, F32Y, T56S
VL: B2 VL with S32R, I74T
notes: recombinant human IgG2 kappa; also called sc413
no binding: [5]

B5: AB-CD45RB-XG2-416 (antibody, human IgG2, V domains shown)
VH: B2 VH with K31R, F32Y, D42G, T56S, Y57N, M83V
VL: B2 VL with S68G, I74T, K112E
notes: recombinant human IgG2 kappa; also called sc416
no binding: [5]

B6: AB-CD45RB-XG2-569 (antibody, human IgG2, V domains shown)
VH: QVQLQESGPGLVKPSETLSLTCTVSGGSISGYYWSWIRQPAGKGLEWIGRIHTTGKTAYNSSLKSRVIMSVDTSKNLFSLKLTSVTAADTAVYYCARDYDFLTGYFDYWGQGTLVTVSS
VL: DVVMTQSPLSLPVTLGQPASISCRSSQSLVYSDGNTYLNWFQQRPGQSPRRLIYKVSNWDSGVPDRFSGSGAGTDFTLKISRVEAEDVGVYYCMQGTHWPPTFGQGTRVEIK
notes: recombinant human IgG2 kappa; also called sc569
no binding: [5]

B7: AB-CD45RB-XG2-525 (antibody, human IgG2, V domains shown)
VH: QVQLVESGGGVVQPGRSLRVSCAASGFTFSNYGMHWVRQAPGKGLEWVAVIWYDGSKKFYADSVKGRFTISRDNSQNTLSLQMSSLRAEDTAVYYCARGGGDFDFWGQGTLVTVSS
VL: KIVMTQSPATLSVSPGERATLSCRASQSLSGSYLAWYQQRPGQAPRLLIYGASTRATGIPARFSGSGSGTEFTLTISSLQSEDFAVYYCQQYNKWPPLTFGGGTKVEIK
notes: recombinant human IgG2 kappa; also called sc525
not listed: [1]
no binding: all other assays above

B8: AB-CD45RB-XG2-026 (antibody, human IgG2, V domains shown)
VH: B2 VH with K31N, F32Y, D42G, T56S, Y57N, S102D
VL: B7 VL with K1E, A19V, S28T, L29I, R40K, S53F, K94N, K105R
notes: recombinant human IgG2 kappa; also called sc026; 1G10 (sc026)
not listed: [1]
no binding: all other assays above

B9: AB-CD45RB-XG2-606 (antibody, human IgG2, V domains shown)
VH: B7 VH with V5A, V20L, V50I, Q76N, S80Y, Q82H, M83V, S84N, A88V, F103I
VL: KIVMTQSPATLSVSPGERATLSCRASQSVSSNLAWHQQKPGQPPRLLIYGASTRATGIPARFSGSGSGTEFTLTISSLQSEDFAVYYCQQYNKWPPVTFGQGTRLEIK
notes: recombinant human IgG2 kappa; also called sc606
not listed: [1]
no binding: all other assays above

B10: AB-CD45RB-XG2-593 (antibody, human IgG2, V domains shown)
VH: B7 VH
VL: B7 VL with L29V, S32N, N93G
notes: recombinant human IgG2 kappa; also called sc593
not listed: [1]
no binding: all other assays above

B11: AB-CD45RB-XG2-446 (antibody, human IgG2, V domains shown)
VH: B7 VH with R16K, V20L, S30R, Q76K, S80N, S84N, A97V, F105Y
VL: EIVMTQSPATLSVSLGERATLSCRASQNISGNYLAWYQQRPGQAPRRLIYSASSRATGIPDRFSGSGSGTEFTLTISSLQSEDFAVYYCQQYNNWPPLTFGGGTKVEMK
notes: recombinant human IgG2 kappa; also called sc446
not listed: [1]
no binding: all other assays above

B12: AB-CD45RB-XG2-439 (antibody, human IgG2, V domains shown)
VH: B7 VH with V20L, Q76K, T78M, L79Q, S80Y, S84D, F105Y, T110I
VL: B7 VL with K1E, S28N, S32K, R40K, R46S, L47R, A52T, I59V, F84S, K94N
notes: recombinant human IgG2 kappa; also called sc439
not listed: [1]
no binding: all other assays above

B13: AB-CD45RB-XG2-713 (antibody, human IgG2, V domains shown)
VH: B7 VH with V20L, S75F, Q76E, N77K, S80Y, S84N, F105Y
VL: B7 VL with K1E, R40K, G51S, K94N
notes: recombinant human IgG2 kappa; also called sc713
not listed: [1]
no binding: all other assays above

B14: AB-CD45RB-XG2-493 (antibody, human IgG2, V domains shown)
VH: B7 VH
VL: B7 VL with A9V, S26C, L29V, N93G
notes: recombinant human IgG2 kappa; also called sc493
not listed: [1]
no binding: all other assays above

B15: AB-CD45RB-XG2-487 (antibody, human IgG2, V domains shown)
VH: B7 VH with A23E
VL: B7 VL with L29V, S32N, N93G
notes: recombinant human IgG2 kappa; also called sc487
not listed: [1]
no binding: all other assays above

B16: AB-CD45RB-XG2-502 (antibody, human IgG2, V domains shown)
VH: B7 VH with G42D
VL: B7 VL with L29V, S32N, Q39R, N93G
notes: recombinant human IgG2 kappa; also called sc502
no binding: [3] | [5] | [6]

B17: AB-CD45RB-XG2-475 (antibody, human IgG2, V domains shown)
VH: AVQLLESGGGLIQPGGSLRLSCAASGFTFSSYAMSWVRQAPGKGLEWVSAISGSGGSTFYADSVRGRFTISRDNSKNTLYLQMNSLRVEDTAVYYCAKEVMGPIFFDYWGQGTLVTVSS
VL: EIVLTQSPGTLSLSPGERATLSCRASQSIISSALAWYQQKPGQAPRLLIYGASSRATGIPDRFSGSGSGTDFTLTISRLEPEDFAVYHCQQYGSTPLTFGGGTKVEIK
notes: recombinant human IgG2 kappa; also called sc475
no binding: [5]
